Data as given in US20240409645A1 (DUALYX, published 2024).

T1: human IL-2Rβ (human, UniProt P14784 27-240, limits assumed)
T1 construct: Recombinant protein, coated (ELISA) or immobilised on CM5 (SPR); also called hu IL-2R; interleukin 2 receptor β-chain
T1 sequence: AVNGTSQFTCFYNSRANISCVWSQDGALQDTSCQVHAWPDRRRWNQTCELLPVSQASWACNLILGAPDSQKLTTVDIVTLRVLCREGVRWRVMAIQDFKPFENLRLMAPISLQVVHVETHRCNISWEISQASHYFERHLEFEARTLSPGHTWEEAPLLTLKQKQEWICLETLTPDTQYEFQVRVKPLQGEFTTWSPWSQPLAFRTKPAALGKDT


Tests used:
human IL-2Rβ [1] = target: T1, human IL-2Rβ; assay: P.E. binding ELISA on coated protein
Method: In a binding ELISA, human or mouse IL-2Rα, IL-2Rβ and IL-2Rγ proteins were coated directly on maxisorp microtiter plates overnight at 4° C. Free binding sites were blocked using 4% Marvel in PBS for 1 hour. Next, 1:5 dilution of P.E. in 1% Marvel/PBS were added to wells and incubated for 1 hour. […] Binding specificity was determined based on O.D. at 450 nm values compared to negative controls.

human IL-2Rβ [2] = target: T1, human IL-2Rβ; assay: SPR (Biacore), P.E. off-rate ranking

| Binder | P.E. binding ELISA OD (human IL-2Rβ [1]) | koff (human IL-2Rβ [2]) |
| --- | --- | --- |
| FJ1427_P035MP03G03 (VHH, soluble VHH in periplasmic extract; also called clone nr) VHH: QVQLVESGGGLVQPGGSLGLSCAASGFTFDNYAMSWVRQAPGKGLEWVSSITGAGRGTHYADSVKGRFTISRDNAKNTLYLQMNSLKPEDTAVYYCAKYSSSTYYPPTPARGTDYRGPGTQVTVSS | 0.137 OD450 nm | 0.00114 s⁻¹ |
| FJ1427_P035MP06B01 (VHH, soluble VHH in periplasmic extract; also called clone nr) VHH: QVQLVESGGGLVQAGGSLRLSCAASGDVFVRYTMAWFRQAPGKEREFVASVTDSGRTTDYVHSVKGRFTVSRDNAKNTVYLQMNNLKPEDTAVYYCAANTDYFQIRSLDANTWGQGTQVTVSS | 0.521 OD450 nm | 0.0021 s⁻¹ |
| FJ1427 P035MP03B11 (VHH, soluble VHH in periplasmic extract; also called clone nr) VHH: EVQLVESGGGLVQAGGSLRLACALSGDVFVRYTMAWFRQAPGKEREFVASVTDSGRTTDYVASVQGRFTVSRDNNKNTVYLQMNSLKPEDTAVYYCAANTDYFQIRSLDRNTWGQGTQVTVSS | 0.987 OD450 nm | 0.000622 s⁻¹ |
| FJ1427_P035MP03B05 (VHH, soluble VHH in periplasmic extract; also called clone nr) VHH: EVQLVESGGGLVQAGGSLRLACALSGDVFVRYTMAWFRQAPGKEREFVASVTDSGRTTDYVASVQGRFTVSRDNNKNTVYLQMNSLKPEDTAVYYCAANTDYFQIRSLDRNTWGQGTQVTVSS | 0.401 OD450 nm | 0.000898 s⁻¹ |
| FJ1427_P035MP03A10 (VHH, soluble VHH in periplasmic extract; also called clone nr) VHH: QVQLVESGGGLVQAGGSLRLACALSGDVFVRYTMAWFRQAPGKEREFVASVTDSGRTTDYVASVQGRFTVSRDNNKNTVYLQMNSLKPEDTAVYYCAANTDYFQIRSLDRNTWGQGTQVTVSS | 0.983 OD450 nm | 0.000636 s⁻¹ |
| FJ1427_P035MP03E11 (VHH, soluble VHH in periplasmic extract; also called clone nr) VHH: EVQLVESGGGLVQAGGSLRLSCVVSGDVFVRYTMAWFRQAPGKEREFVAAVTDSGRTTEYVDSVKGRFTVSRDNAKNTVYLQMNNLEPEDTAVYYCAANTDYFQIRSVDNNAWGQGTQVTVSS | 0.624 OD450 nm | 0.00148 s⁻¹ |
| FJ1427 P035MP03B10 (VHH, soluble VHH in periplasmic extract; also called clone nr) VHH: QVQLVESGGGLVQAGGSLRLSCVVSGDVFVRYTMAWFRQAPGKEREFVAVVTDSGRTTEYVDSVKGRFTVSRDNAKNTVYLQMNNLKPEDTAVYYCAANTDYFQIRSVDNNAWGQGTQVTVSS | 0.286 OD450 nm | 0.000707 s⁻¹ |
| FJ1427 P035MP03C06 (VHH, soluble VHH in periplasmic extract; also called clone nr) VHH: QVQLVESGGGLVQAGGSLRLACALSGDVFVRYTMAWFRQAPGKEREFVASVTDSGRTTDYVASVQGRFTVSRDNNKNTVYLQMNSLKPEDTAVYYCAANTDYFQIRSLDRNTWGQGTQVTVSS | 1.21 OD450 nm | 0.000658 s⁻¹ |
| FJ1427 P035MP03B08 (VHH, soluble VHH in periplasmic extract; also called clone nr; 250) VHH: QVQLVESGGGLVQAGGSLRLACALSGDVFVRYTMAWFRQAPGKEREFVASVTDSGRTTDYVASVQGRFTVSRDNNKNTVYLQMNSLKPEDTAVYYCAANTDYFQIRSLDRNTWGQGTQVTVSS | 1.12 OD450 nm | 0.00064 s⁻¹ |
| FJ1427_P035MP03G08 (VHH, soluble VHH in periplasmic extract; also called clone nr) VHH: QVQLVESGGGLVQAGGSLRLACALSGDVFVRYTMAWFRQAPGKGREFVASVTDSGRTTDYVASVQGRFTVSRDNNKNTVYLQMNSLKPEDTAVYYCAANTDYFQIRSLDRNTWGQGTQVTVSS | 1.26 OD450 nm | 0.00055 s⁻¹ |
| FJ1427 P035MP03B12 (VHH, soluble VHH in periplasmic extract; also called clone nr) VHH: EVQLVESGGGLVQAGGSLRLSCAASGDVFVRYTMAWFRQAPGKEREFVAAVTDSGRTADYVDSVKGRFTVSRDNAKNTVYLQMNNLKPEDTAVYYCAANTDYFQIRSLDRNTWGQGTQVTVSS | 0.202 OD450 nm | 0.00125 s⁻¹ |
| FJ1427 P035MP03D07 (VHH, soluble VHH in periplasmic extract; also called clone nr) VHH: EVQLVESGGGLVQAGGSLRLSCAASGDVFVRYTMAWFRQAPGKEREFVASVTDSGRTTDYGDSVKGRFTVSRDNAKNTVYLQMNNLKPEDTAVYYCAANTDYFQIRSLDANTWGQGTQVTVSS | 0.209 OD450 nm | 0.00263 s⁻¹ |
| FJ1427 P035MP03C08 (VHH, soluble VHH in periplasmic extract; also called clone nr) VHH: EVQLVESGGGLVQAGGSLRLACALSGDVFVRYTMAWFRQAPGKEREFVASVTDSGRTTDYVASVQGRFTVSRDNNKNTVYLQMNSLKPEDTAVYYCAANTDYFQIRSLDRNTWGQGTQVTVSS | 0.972 OD450 nm | 0.000757 s⁻¹ |
| FJ1427 P035MP03E07 (VHH, soluble VHH in periplasmic extract; also called clone nr) VHH: QVQLVESGGGLVQAGGSLRLSCAVSGDVFVRYTMAWFRQAPGKEREFVATVTDSGRTTEYVDSVKGRFTVSRDNAKNTVYLQMNNLKPEDTAVYYCAANTDYFRIRSLDANTWGQGTQVTVSS | 0.211 OD450 nm | 0.00168 s⁻¹ |
| FJ1427 P035MP03C11 (VHH, soluble VHH in periplasmic extract; also called clone nr) VHH: QVQLVESGGGLVQAGGSLRLACALSGDVFVRYTMAWFRQAPGKEREFVASVTDSGRTTDYVASVQGRFTVSRDNNKNTVYLQMNSLKPEDTAVYYCAANTDYFQIRSLDRNTWGQGTQVTVSS | 1.31 OD450 nm | 0.000514 s⁻¹ |
| FJ1427 P035MP03D09 (VHH, soluble VHH in periplasmic extract; also called clone nr; 260) VHH: QVQLVESGGGLVQAGGSLRLSCAVSGDVFVRYTMAWFRQAPGKEREFVASVTDSGRTTDYVHSVKGRFTVSRDNAKNTVYLQMNNLKPEDTAVYYCAANTDYFQIKSLDANTWGQGTQVTVSS | 0.313 OD450 nm | 0.00161 s⁻¹ |
| FJ1427 P035MP06C02 (VHH, soluble VHH in periplasmic extract; also called clone nr) VHH: QVQLVESGGGLVQAGGSLRLSCVVSGDVFVRYTMAWFRQAPGKEREFVAVVTDSGRTTEYVDSVKGRFTVSRDNAKNTVYLQMNNLKPEDTAVYYCAANTDYFQIRSVDNNAWGQGTQVTVSS | 0.799 OD450 nm | 0.000455 s⁻¹ |
| FJ1427_P035MP03B09 (VHH, soluble VHH in periplasmic extract; also called clone nr) VHH: QVQLVESGGGLVQAGGSLRLSCVVSGDVFVRYTMAWFRQAPGKEREFVTSITDSGRTTEYVDSVKGRFTVSRDNAKNTVYLQMNNLKPEDTAVYYCAANTDYFRIRSLDANTWGQGTQVTVSS | 0.467 OD450 nm | 0.00202 s⁻¹ |
| FJ1427 P035MP06D01 (VHH, soluble VHH in periplasmic extract; also called clone nr) VHH: QVQLVESGGRLVQAGGSLRLSCAASGDVFVRYTMAWFRQAPGKEREFVASVTDSGRTTEYVDSVKGRFTVSRDNAKNTAYLQMNNLKPEDTAVYYCAANTDYFQIRSLNLNTWGQGTQVTVSS | 1.1 OD450 nm | 0.00031 s⁻¹ |
| FJ1427_P035MP03E02 (VHH, soluble VHH in periplasmic extract; also called clone nr) VHH: QVQLVESGGGLVQVGGSLSVSCAASGRSFDSITMAYFRQAPGNEREFIAGINFSGSRTAYGDSVKGRFTISRDNAKNTVFLQMNSLNPEDTAVYYCAASPRGFYGPGHALYDYWGQGTQVTVSS | 0.488 OD450 nm | 0.00124 s⁻¹ |
| FJ1427 P035MP03B04 (VHH, soluble VHH in periplasmic extract; also called clone nr) VHH: QVQLVESGGGLVQTGGSLRLSCAASGSQFINDVMGWYRQVPGKQRELVADMDDTGSTKYADSVKGRFTILRDSVKNTAYLQMSNLKPEDTGVYYCKAGLWIKGRHSDYWGQGTQVTVSS | 0.186 OD450 nm | 0.00043 s⁻¹ |
| FJ1427_P035MP03F06 (VHH, soluble VHH in periplasmic extract; also called clone nr) VHH: QVQLQESGGGLVQTGGSLRLSCAASGSQFINDVMGWYRQVPGKQRELVADMDDTGSTKYADSVKGRFTILRDSVKNTAYLQMSNLKPEDTGVYYCKAGLWIKGRHSDYWGQGTQVTVSS | 0.434 OD450 nm | 0.000286 s⁻¹ |
| FJ1427_P035MP03F04 (VHH, soluble VHH in periplasmic extract; also called clone nr) VHH: EVQLVESGGGLVQTGGSLRLSCAASGSQFINDVMGWYRQVPGKQRELVADMDDTGSTKYADSVKGRFTILRDSVKNTAYLQMSNLKPEDTGVYYCKAGLWIKGRHSDYWGQGTQVTVSS | 0.153 OD450 nm | 0.000402 s⁻¹ |
| FJ1427_P035MP03F03 (VHH, soluble VHH in periplasmic extract; also called clone nr) VHH: QVQLVESGGTLVQTGGSLRLSCVVSGSHFISDVMGWYRQVPGKQRELVADMADGGSAKYGDSVKGRFTIVRDSVKNTVYLQMSSLNPEDTGVYYCKAGLWIKGRHSDYWGQGTQVTVTS | 0.107 OD450 nm | 0.000361 s⁻¹ |
| FJ1427_P035MP03E03 (VHH, soluble VHH in periplasmic extract; also called clone nr) VHH: QVQLVESGGGLVQPGGSLRLSCAVSGGTLHDYGIGWIRQAPGKQREGVSCMSRSDDKTYYADYVKGRFTISKDNAKNTVYLQMISLKPEDTAVYYCAAVDAYGCSLVQPTTYDYWGQGTQVTVSS | 0.281 OD450 nm | 0.00136 s⁻¹ |
| FJ1427_P035MP03G02 (VHH, soluble VHH in periplasmic extract; also called clone nr) VHH: EVQLVESGGGLVQPGGSLRLSCAISGGTLDSYGIGWVRQAPGKQREGVSCMSRSDDRTFYADSVKGRFTISKDNAKSTVYLQMTNLKPDDTAVYYCAAVDAYGCSLVQPTTYDFWGLGTQVTVSS | 0.684 OD450 nm | 0.000754 s⁻¹ |
